Measured values reported in patent publication US20020110800A1, “Use of SHP-1 and SHP-2 to detect compounds involved in neuronal survival” (McGill University, priority 1997, published 2002).

System: SHP-2
Test: BDNF-stimulated association of SHP-2 with tyrosine-phosphorylated proteins in cortical neurons
Format: cell-based, rat
Excerpt: FIG. 5 is a Western blot showing that BDNF stimulates the association of SHP-2 with tyrosine phosphorylated proteins in cortical neurons. Lysates prepared from cortical neurons treated with or without BDNF were immunoprecipitated with anti-SHP-2 antibody and probed with anti-pTyr antibody.
To determine the mechanism whereby the neutrotrophins stimulate the survival and growth of normal and injured neurons, we have asked whether the phosphoprotein phosphatases SHP-1 and SHP-2 play a role in the differentiation and survival of primary neurons, focusing our studies on cultured rat sympathetic cervical ganglion (SCG) and cortical neurons in order to determine the exact nature of this regulation.
Immunoprecipitations and immunoblotting were performed as previously described (Kaplan et al., Science, 252:554-558, 1991). […]

B1: BDNF: brain-derived neurotrophic factor, a neurotrophin, obtained from Peprotech (protein, UniProt P23560 19-247, looked up)
Neurotrophic factor BDNF …: APMKEANIRGQGGLAYPGVRTHGTLESVNGPKAGSRGLTSLADTFEHVIEELLDEDQKVRPNEENNKDADLYTSRVMLSSQVPLEPPLLFLLEEYKNYLDAANMSMRVRRHSDPARRGELSVCDSISEWVTAADKKTAVDMSGGTVTVLEKVPVSKGQLKQYFYETKCNPMGYTKEGCRGIDKRHWNSQCRTTQSYVRALTMDSKKRIGWRFIRIDTSCVCTLTIKRGR
  association of tyrosine-phosphorylated proteins with SHP-2: causes the association of tyrosine-phosphorylated proteins with SHP-2
